According to patent US11229679B2, “Compositions for treating heart disease by inhibiting the action of mAKAPβ” (Anchored RSK3 Inhibitors, LLC, priority 2013, dated 2022):

Legend:
[1] = system: neonatal rat ventricular myocytes; test: Neonatal rat ventricular myocyte hypertrophy (cross-section area, ANF expression); type: cell-based; conditions: for agonist-induced myocyte hypertrophy: BI-D1870 10 μmol/L, SL0101 50 μmol/L, PE, LIF or FBS, 2 days; for PE-induced hypertrophy: expressed in neonatal myocytes
Method: Neonatal rat myocytes isolation and culture: 1-3 day old Sprague-Dawley rats were decapitated and the excised hearts placed in 1×ADS Buffer (116 mmol/L NaCl, 20 mmol/L HEPES, 1 mmol/L NaH2PO4, 5.5 mmol/L glucose, 5.4 mmol/L KCl, 0.8 mmol/L MgSO4, pH 7.35). The atria were carefully removed and the blood washed away. The ventricles were minced and incubated with 15 mL 1×ADS Buffer containing 3.3 mg type II collagenase (Worthington, 230 U/mg) and 9 mg Pancreatin (Sigma) at 37° C. while shaking at 80 RPM. After 15 minutes, the dissociated cardiac myocytes were separated by centrifugation at 50×g for 1 minute, resuspended in 4 mL horse serum and incubated 37° C. with occasional agitation. The steps for enzymatic digestion and isolation of myocytes were repeated 10-12 times to maximize yield. The myocytes were pooled and spun down again at 50×g for 2 minutes and resuspended in Maintenance Medium (DMEM:M199, 4:1) supplemented with 10% horse serum and 5% fetal bovine serum. To remove any contaminating fibroblasts, the cells were pre-plated for 1 hour before plating on gelatin-coated tissue culture plasticware. This procedure yields >90% pure cardiac myocytes. After 1 day in culture, the media was changed to maintenance medium containing 0.1 mmol/L bromodeoxyuridine to suppress fibroblast growth. Experiments were initiated 1 day after myocyte isolation. Adenoviral infection was performed by addition of adenovirus (multiplicity of infection=5-50) to the media. Plasmids and siRNA oligonucleotides were transfected using Transfast (Promega) and Dharmafect (Thermofisher), respectively, as recommended by the manufacturers using cells cultured in maintenance medium supplemented with 4% horse serum. Starting the day after gene transduction, the cells were treated for as long as 2 days, as indicated for each experiment. Immunocytochemistry: Cultured neonatal cardiomyocytes on plastic coverslips were fixed in 3.7% formaldehyde in PBS, permeabilized with 0.3% Triton X-100 in PBS, and blocked with PBS containing 0.2% BSA and 1% horse serum for 1 hour. The slides were then sequentially incubated for 1 hour with primary and Alexa fluorescent dye-conjugated specific-secondary antibodies (Invitrogen, 1:1000) diluted in blocking buffer. The slips were washed three times with blocking buffer. 1 μg/mL Hoechst 33258 was included in the last wash stop to label nuclei. Slides were sealed in SlowFade Gold antifade buffer (Invitrogen) for fluorescent microscopy. Wide-field images were acquired using a Leica DMI 6000 Microscope. Morphometry: Morphometric data was acquired using IPLab Software. […] For adult mouse cardiac myocytes, the maximum lengths perpendicular (width) or parallel (length) to the myofibrils were measured for >100 freshly dissociated myocytes per heart.

[2] = system: Noonan syndrome mouse model (Raf1L613V knock-in); conditions: Wu 2011; cited from earlier work
NHE1 = conditions: Cuello 2007; cited from earlier work
RSK = RSK activation in neonatal rat ventricular myocytes (pan-RSK phospho-S218 Western blot); type: cell-based; conditions: 10 μmol/L PE, 1 hour
Description: RSK family members can be activated in most cell types by ERK, but not c-Jun N-terminal kinases or p38 (Anjum 2008). ERK phosphorylation is permissive for PDK1 phosphorylation of the RSK N-terminal kinase domain, such that PDK1 phosphorylation of RSK S^218 is indicative of full activation of the enzyme (FIG. 4A). […] The α-adrenergic stimulation with phenylephrine (PE) induced RSK phosphorylation 3-fold by both MEK1/2-dependent (that activates ERK1/2) and MEK5-dependent (that activates ERK5) mechanisms (FIG. 22).
Immunoprecipitations: HEK293 and COS-7 cells were transfected with Lipofectamine 2000 (Invitrogen) or Polyethylenimine “Max” (Polysciences). Cells (including myocytes) were lysed in buffer (20 mmol/L HEPES, pH 7.4, 150 mmol/L NaCl, 5 mmol/L EDTA, 0.5% Triton, 50 mmol/L NaF, 1 mmol/L sodium orthovanadate, 1 mmol/L DTT, and protease inhibitors). After centrifugation at 10,000×g for 10 minutes at 4° C., the clarified extracts were used for immunoprecipitation using appropriate antibodies (10 μg purified antibody or 1-5 μL whole serum) and 20 μL protein G sepharose (Millipore, Fastflow) for 3 hours to overnight at 4° C. The beads were washed 3-5 times with lysis buffer, and the immunoprecipitated proteins were eluted with 1× Laemmli buffer for western blotting. […]

RSK3 = target: T1, RSK3 (Homo sapiens, UniProt Q15349); test: Surface plasmon resonance of His-RSK3 binding to immobilized His-mAKAP 1286-1833
T1 construct: bacterially expressed His-tagged mAKAP 1286 to 1833 and full-length RSK3 was analyzed by surface plasmon resonance; His; made in house; host or cells: bacteria (pET30 / pGEX-4T vectors)
Method: Surface Plasmon Resonance: SPR analysis was performed using a BIAcore T100. 200 resonance units His-tagged mAKAP 1286-1833 were covalently immobilized using NHS (N-hydroxysuccinamide) and EDC [1-ethyl-3-(3-(dimethylamino)propyl)carbodiimide] (Biacore amine coupling kit) to the surface of a sensor chip (BIAcore type CM5). His-RSK3 analytes (6.25-200 nmol/L) in HBS buffer (10 mmol/L Hepes, pH 7.4, 150 mmol/L NaCl, and 0.005% Surfactant P20) were injected at a flow rate of 30 μL/min for 5 minutes, followed by buffer alone for another 5 minutes. Sensorgrams were processed by BIAcore T100 evaluation software.
For phosphorylated His-RSK3, 20 μg His-RSK3 was phosphorylated with 2 μg ERK2 (Millipore, 14-550) and/or PDK1 (Sigma, P7498) for 5 hours in kinase buffer (20 mmol/L MOPS, pH 7.2, 25 mmol/L β-glycerol phosphate, 5 mmol/L EGTA, 1 mmol/L sodium orthovanadate, 1 mmol/L DTT) with 0.5 mmol/L MgATP. Phospho-His-RSK3 was purified using His-binding beads and concentrated before use.

[3] = system: HA-RSK3 fragments, HA-RSK2; test: Co-immunoprecipitation of tagged mAKAP and RSK proteins co-expressed in COS-7 cells; type: binding
Method: (§1) Immunoprecipitations: HEK293 and COS-7 cells were transfected with Lipofectamine 2000 (Invitrogen) or Polyethylenimine “Max” (Polysciences). Cells (including myocytes) were lysed in buffer (20 mmol/L HEPES, pH 7.4, 150 mmol/L NaCl, 5 mmol/L EDTA, 0.5% Triton, 50 mmol/L NaF, 1 mmol/L sodium orthovanadate, 1 mmol/L DTT, and protease inhibitors). After centrifugation at 10,000×g for 10 minutes at 4° C., the clarified extracts were used for immunoprecipitation using appropriate antibodies (10 μg purified antibody or 1-5 μL whole serum) and 20 μL protein G sepharose (Millipore, Fastflow) for 3 hours to overnight at 4° C. The beads were washed 3-5 times with lysis buffer, and the immunoprecipitated proteins were eluted with 1× Laemmli buffer for western blotting. Western blots were developed using horseradish peroxidase-conjugated donkey secondary antibodies, Supersignal West Chemiluminescent Substrates (Thermo Scientific) and X-ray film or a Fujifilm LAS-3000 imaging system.

RSK3 and mAKAPβ = test: Co-immunoprecipitation of endogenous RSK3 with mAKAPβ complexes from PE-treated myocytes; type: cell-based, rat; conditions: expressed in neonatal myocytes
Method: as §1

T1 sequence (Q15349 whole entry): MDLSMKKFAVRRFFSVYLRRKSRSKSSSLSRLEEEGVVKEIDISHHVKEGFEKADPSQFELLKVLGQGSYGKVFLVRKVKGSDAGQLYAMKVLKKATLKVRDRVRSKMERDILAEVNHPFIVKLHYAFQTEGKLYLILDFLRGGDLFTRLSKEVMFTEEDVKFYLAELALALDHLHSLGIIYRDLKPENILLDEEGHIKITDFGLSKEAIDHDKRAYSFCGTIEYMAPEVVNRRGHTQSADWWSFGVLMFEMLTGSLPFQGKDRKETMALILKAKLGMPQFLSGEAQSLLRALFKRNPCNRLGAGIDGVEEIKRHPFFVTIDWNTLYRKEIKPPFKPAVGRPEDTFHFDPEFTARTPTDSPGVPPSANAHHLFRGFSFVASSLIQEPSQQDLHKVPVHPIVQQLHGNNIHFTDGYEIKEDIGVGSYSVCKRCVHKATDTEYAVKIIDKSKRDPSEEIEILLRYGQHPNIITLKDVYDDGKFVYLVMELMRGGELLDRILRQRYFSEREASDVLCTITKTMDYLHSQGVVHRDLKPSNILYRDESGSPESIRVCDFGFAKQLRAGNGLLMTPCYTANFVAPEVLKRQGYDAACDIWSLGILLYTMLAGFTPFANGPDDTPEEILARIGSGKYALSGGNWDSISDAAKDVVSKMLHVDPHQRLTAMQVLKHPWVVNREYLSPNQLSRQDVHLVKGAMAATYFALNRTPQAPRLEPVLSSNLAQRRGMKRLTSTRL

CC(C)CCN1c2nc(Nc3cc(F)c(O)c(F)c3)ncc2N(C)C(=O)C1C (stereo not drawn) [BI-D1870, reference compound]
agonist-induced myocyte hypertrophy [1]: inhibited

CC(=O)OC1C(C)OC(Oc2c(-c3ccc(O)cc3)oc3cc(O)cc(O)c3c2=O)C(O)C1OC(C)=O (stereo not drawn) [SL0101, reference compound]
agonist-induced myocyte hypertrophy [1]: inhibited

O=C(NOC[C@H](O)CO)c1ccc(F)c(F)c1Nc1ccc(I)cc1F [PD0325901]
progression of cardiac hypertrophy cardiomyopathy and other Noonan characteristics [2]: attenuated progression

Cc1ccc(-c2c(C(=O)CF)n(CCCO)c3ncnc(N)c23)cc1 [fmk]
α-adrenergic-induced NHE1 phosphorylation (NHE1): blocked

CNC[C@H](O)c1cccc(O)c1 [phenylephrine]
induction of RSK phosphorylation (RSK): 3 fold

B1: mAKAP 1286 to 1833: bacterially expressed His-tagged mAKAP fragment, residues 1286 to 1833 (protein)
chain: VYSLHNVELHEDSHTPFLKSSPKFTGTTQPTVLTKSLSKDSSFSSTKSLPDLLGGSGLVRPYSCHSGDLSQNSGSESGIVSEGDNEMPTNSDMSLFSMVDGSPSNPETEHPDPQMGDAANVLEQKFKDNGESIKLSSVSRASVSPVGCVNGKAGDLNSVTKHTADCLGEELQGKHDVFTFYDYSYLQGSKLKLPMIMKQPQSEKAHVEDPLLGGFYFDKKSCKAKHQASESQPDAPPHERILASAPHEMGRSAYKSSDIEKTFTGIQSARQLSLLSRSSSVESLSPGGDLFGLGIFKNGSDSLQRSTSLESWLTSYKSNEDLFSCHSSGDISVSSGSVGELSKRTLDLLNRLENIQSPSEQKIKRSVSDMTLQSSSQKMPFAGQMSLDVASSINEDSPASLTELSSSDELSLCSEDIVLHKNKIPESNASFRKRLNRSVADESDVNVSMIVNVSCTSACTDDEDDSDLLSSSTLTLTEEELCLKDEDDDSSIATDDEIYEESNLMSGLDYIKNELQTWIRPKLSLTREKKRSGVTDEIKVNKDGGGNE
modifications: left off: small tags and cut ends
decrease of RSK3 binding affinity for mAKAP (RSK3; RSK3 previously phosphorylated by ERK): 5 fold
decrease of RSK3 binding affinity for mAKAP (RSK3; RSK3 previously phosphorylated by both ERK and PDK1): 8 fold
KD of binding to full-length RSK3 (RSK3; unphosphorylated His-RSK3): nanomolar

B2: mAKAP RBD: main RSK3 binding domain of mAKAP, fragment encompassing residues 1694 to 1833; competing binding peptide (protein)
chain: ELSLCSEDIVLHKNKIPESNASFRKRLNRSVADESDVNVSMIVNVSCTSACTDDEDDSDLLSSSTLTLTEEELCLKDEDDDSSIATDDEIYEESNLMSGLDYIKNELQTWIRPKLSLTREKKRSGVTDEIKVNKDGGGNE
modifications: left off: small tags and cut ends
PE-induced hypertrophy [1]: inhibited
binding to N-terminally truncated RSK3 mutant (HA-RSK3 DN30) or HA-tagged full-length RSK2 [3]: not

B3: green fluorescent protein-mAKAP RBD fusion protein: myc-GFP-mAKAP RSK binding domain (RBD) fusion protein; mAKAP 1694-1833 (protein)
chain: ELSLCSEDIVLHKNKIPESNASFRKRLNRSVADESDVNVSMIVNVSCTSACTDDEDDSDLLSSSTLTLTEEELCLKDEDDDSSIATDDEIYEESNLMSGLDYIKNELQTWIRPKLSLTREKKRSGVTDEIKVNKDGGGNE
modifications: left off: small tags and cut ends; large carriers
association of endogenous RSK3 and mAKAPβ (RSK3 and mAKAPβ): competed
PE-induced hypertrophy [1]: markedly inhibited
